Source: the supplement of paper PMC9732359
± gives the uncertainty stated by the source.

Assay: protein stability index of a GFP-peptide fusion (yeast GPS) (PSI 1-4); higher = more stable; sorted into four equal gates, so the index is relative within each strain
In short: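 Yeast carrying a pooled library were grown to mid-log phase in leucine-free medium. Each library plasmid expresses Cherry and has a tiled 17-residue yeast protein peptide fused downstream of GFP. Cells were sorted into four equal gates by GFP/Cherry ratio, and plasmids from each gate were PCR-amplified, Illumina-sequenced and assigned to strains by barcode. Summing, across gates, the read frequency times the gate number gave each peptide's protein stability index.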

## LLLNYLELIGVLSINPD [MED7]
doa10∆
  protein stability index: 1.6 ± 0.067
pdr5∆
  protein stability index: 1.78 ± 0.063
san1∆
  protein stability index: 1.31 ± 0.14
ubr1∆
  protein stability index: 1.49 ± 0.058

## QQKLNTRMQRGHRADVG [REC8]
doa10∆
  protein stability index: 2.84 ± 0.16
pdr5∆
  protein stability index: 2.85 ± 0.096
san1∆
  protein stability index: 2.84 ± 0.15
ubr1∆
  protein stability index: 3.3 ± 0.088

## EVAIRDVNLDVRIHSIQ [IRR1]
doa10∆
  protein stability index: 2.4 ± 0.06
pdr5∆
  protein stability index: 2.1 ± 0.061
san1∆
  protein stability index: 2.49 ± 0.059
ubr1∆
  protein stability index: 1.68 ± 0.052

## QRRYVIKEKVQFNATIN [ITC1]
doa10∆
  protein stability index: 1.47 ± 0.04
pdr5∆
  protein stability index: 1.65 ± 0.033
san1∆
  protein stability index: 1.63 ± 0.069
ubr1∆
  protein stability index: 1.68 ± 0.024

## FLGALKYLPHAILKLLE [PRP8]
doa10∆
  protein stability index: 2.12 ± 0.09
pdr5∆
  protein stability index: 1.82 ± 0.061
san1∆
  protein stability index: 2.55 ± 0.085
ubr1∆
  protein stability index: 2.16 ± 0.039

## QENKNIDDENITKLNKE [SRB4]
doa10∆
  protein stability index: 3.44 ± 0.056
pdr5∆
  protein stability index: 3.23 ± 0.068
san1∆
  protein stability index: 3.22 ± 0.052
ubr1∆
  protein stability index: 3.46 ± 0.057

## TLNPKTGHLFLKIIHTS [PRP8]
doa10∆
  protein stability index: 2.44 ± 0.047
pdr5∆
  protein stability index: 1.91 ± 0.048
san1∆
  protein stability index: 1.77 ± 0.076
ubr1∆
  protein stability index: 1.84 ± 0.048

## KKNLGRLTRLWIKNEQE [PRP8]
doa10∆
  protein stability index: 1.72 ± 0.063
pdr5∆
  protein stability index: 1.89 ± 0.063
san1∆
  protein stability index: 1.25 ± 0.19
ubr1∆
  protein stability index: 2.5 ± 0.25

## VRIHSIQVLTEASSLGY [IRR1]
doa10∆
  protein stability index: 1.49 ± 0.22
pdr5∆
  protein stability index: 1.64 ± 0.12

## QDEAELVEEKTPGLTFN [RPC82]
pdr5∆
  protein stability index: 3.62 ± 0.29
ubr1∆
  protein stability index: 3.35 ± 0.12

## NEPTQKDEEETEYFENK [DSN1]
doa10∆
  protein stability index: 3.58 ± 0.27
pdr5∆
  protein stability index: 3.54 ± 0.23
san1∆
  protein stability index: 2.71 ± 0.29
ubr1∆
  protein stability index: 3.12 ± 0.23

## YSMISLQNCCIIDVGTH [ARP9]
doa10∆
  protein stability index: 1.75 ± 0.085
pdr5∆
  protein stability index: 1.41 ± 0.067
san1∆
  protein stability index: 1.2 ± 0.15
ubr1∆
  protein stability index: 1.33 ± 0.083

## GEFETKIAGIEGHLAEI [SRB2]
ubr1∆
  protein stability index: 3.1 ± 0.13

## LSEWEEYLKGSESQLNS [YCS4]
doa10∆
  protein stability index: 3.44 ± 0.13
pdr5∆
  protein stability index: 3.65 ± 0.13
san1∆
  protein stability index: 3.46 ± 0.12
ubr1∆
  protein stability index: 3.49 ± 0.1

## LEKFLQGRDTSKLPDPE [SRP72]
doa10∆
  protein stability index: 2.76 ± 0.11
pdr5∆
  protein stability index: 2.2 ± 0.06
san1∆
  protein stability index: 2.38 ± 0.11
ubr1∆
  protein stability index: 2.77 ± 0.051

## PKIDEDDTWYNLTEFVQ [AAR2]
doa10∆
  protein stability index: 3.17 ± 0.088
pdr5∆
  protein stability index: 3.23 ± 0.086
san1∆
  protein stability index: 3.07 ± 0.049
ubr1∆
  protein stability index: 3.07 ± 0.057

## NNNNSTRPQMPSRTRET [GRR1]
doa10∆
  protein stability index: 2.937 ± 0.027
pdr5∆
  protein stability index: 3.108 ± 0.027
san1∆
  protein stability index: 2.949 ± 0.024
ubr1∆
  protein stability index: 3.033 ± 0.021

## FAVALKNEPDYSKAKYP [CDC53]
doa10∆
  protein stability index: 2.88 ± 0.078
pdr5∆
  protein stability index: 2.46 ± 0.081
san1∆
  protein stability index: 2.37 ± 0.098
ubr1∆
  protein stability index: 2.34 ± 0.092

## NVPVHVSPAFRVQVGDI [RPS11A]
doa10∆
  protein stability index: 2.69 ± 0.075
pdr5∆
  protein stability index: 3.15 ± 0.08
san1∆
  protein stability index: 2.68 ± 0.079
ubr1∆
  protein stability index: 2.71 ± 0.06

## MDDEEWRSKRIEQLFPV [RPC53]
doa10∆
  protein stability index: 3.24 ± 0.085
pdr5∆
  protein stability index: 2.31 ± 0.055
san1∆
  protein stability index: 2.89 ± 0.049
ubr1∆
  protein stability index: 2.37 ± 0.041

## TGANSIYSVEKKISRLP [UBP6]
doa10∆
  protein stability index: 3 ± 0.08
pdr5∆
  protein stability index: 3.52 ± 0.11
san1∆
  protein stability index: 3.07 ± 0.059
ubr1∆
  protein stability index: 3.26 ± 0.037

## ERKKQSDVLRFLQRVRV [RPL15B]
doa10∆
  protein stability index: 2.08 ± 0.06
pdr5∆
  protein stability index: 2.43 ± 0.062
san1∆
  protein stability index: 2.04 ± 0.066
ubr1∆
  protein stability index: 2.12 ± 0.043

## EPIYGVQYKLLSISVPS [SNU114]
doa10∆
  protein stability index: 2.18 ± 0.12
pdr5∆
  protein stability index: 2.76 ± 0.18
san1∆
  protein stability index: 2.02 ± 0.18
ubr1∆
  protein stability index: 3.09 ± 0.11

## QSRLFINELVLENFKSY [SMC4]
doa10∆
  protein stability index: 1.75 ± 0.053
pdr5∆
  protein stability index: 2.34 ± 0.049
san1∆
  protein stability index: 1.94 ± 0.078
ubr1∆
  protein stability index: 2.27 ± 0.042

## FDDSSRIVNHKTKLWGF [LIN1]
doa10∆
  protein stability index: 3.09 ± 0.071
pdr5∆
  protein stability index: 2.98 ± 0.08
san1∆
  protein stability index: 3.1 ± 0.069
ubr1∆
  protein stability index: 2.94 ± 0.055

## EKIKDIHNTKLPAYSGE [POP1]
doa10∆
  protein stability index: 3.09 ± 0.059
pdr5∆
  protein stability index: 3.04 ± 0.057
san1∆
  protein stability index: 2.96 ± 0.048
ubr1∆
  protein stability index: 2.79 ± 0.08

## NYGMIAINPGRVAASFS [FAS1]
doa10∆
  protein stability index: 1.72 ± 0.1
pdr5∆
  protein stability index: 1.89 ± 0.09
san1∆
  protein stability index: 1.46 ± 0.076
ubr1∆
  protein stability index: 1.81 ± 0.06

## SEAFPSLQSCSVAVHFQ [SMC4]
doa10∆
  protein stability index: 1.77 ± 0.1
pdr5∆
  protein stability index: 2.09 ± 0.082
san1∆
  protein stability index: 2.39 ± 0.095
ubr1∆
  protein stability index: 1.79 ± 0.056

## CVAAWGVCNHAFHLHCI [HRT1]
doa10∆
  protein stability index: 1.69 ± 0.05
pdr5∆
  protein stability index: 1.75 ± 0.065
san1∆
  protein stability index: 1.52 ± 0.076
ubr1∆
  protein stability index: 2.28 ± 0.045

## TETALMNLKKELQGYIE [SRB5]
doa10∆
  protein stability index: 3.05 ± 0.097
pdr5∆
  protein stability index: 3.07 ± 0.089
san1∆
  protein stability index: 3.11 ± 0.062
ubr1∆
  protein stability index: 2.94 ± 0.085

## KEDKSEAIDGNGEIKGE [SNF2]
doa10∆
  protein stability index: 2.23 ± 0.049
pdr5∆
  protein stability index: 2.81 ± 0.083
san1∆
  protein stability index: 2.17 ± 0.073
ubr1∆
  protein stability index: 2.48 ± 0.084

## QNNKPSFVFGQAAAKPS [YLR335W/NUP2]
doa10∆
  protein stability index: 1.77 ± 0.05
pdr5∆
  protein stability index: 2.12 ± 0.066
san1∆
  protein stability index: 2.2 ± 0.1
ubr1∆
  protein stability index: 2.45 ± 0.075

## EVVQTGAKNIEITVVKP [PRE6]
doa10∆
  protein stability index: 3.24 ± 0.098
pdr5∆
  protein stability index: 3.3 ± 0.093
san1∆
  protein stability index: 3.08 ± 0.052
ubr1∆
  protein stability index: 3.04 ± 0.087

## APKGSTDPKELYNNAHV [RPC40]
doa10∆
  protein stability index: 2.92 ± 0.14
pdr5∆
  protein stability index: 2.96 ± 0.082
san1∆
  protein stability index: 2.68 ± 0.11
ubr1∆
  protein stability index: 3.21 ± 0.062

## EFQIEDAIWSLVFQLAK [SRB8]
doa10∆
  protein stability index: 3.63 ± 0.18
pdr5∆
  protein stability index: 3.36 ± 0.23

## SFCGFLLYYIPSLELSA [YJR042W/NUP85]
doa10∆
  protein stability index: 1.65 ± 0.051
pdr5∆
  protein stability index: 1.58 ± 0.065
san1∆
  protein stability index: 1.57 ± 0.1
ubr1∆
  protein stability index: 1.95 ± 0.059

## RHGFNRSNTGALMRCSF [RPO21]
doa10∆
  protein stability index: 2.71 ± 0.059
pdr5∆
  protein stability index: 3.01 ± 0.064
san1∆
  protein stability index: 2.85 ± 0.061
ubr1∆
  protein stability index: 2.88 ± 0.079

## AAAVSGNNASDEPSRKK [SSN3]
doa10∆
  protein stability index: 2.68 ± 0.13
pdr5∆
  protein stability index: 3.05 ± 0.11
san1∆
  protein stability index: 2.78 ± 0.14
ubr1∆
  protein stability index: 3.05 ± 0.11

## YEADQRKLFPNWIKPSD [PRP8]
doa10∆
  protein stability index: 2.99 ± 0.092
pdr5∆
  protein stability index: 2.86 ± 0.085
san1∆
  protein stability index: 2.67 ± 0.11
ubr1∆
  protein stability index: 2.96 ± 0.049

## VKRRRDMLEHINLAMNE [SRB4]
doa10∆
  protein stability index: 1.3 ± 0.096
pdr5∆
  protein stability index: 1.33 ± 0.12
san1∆
  protein stability index: 1.14 ± 0.19
ubr1∆
  protein stability index: 1.2 ± 0.078

## TLQTISFLGYLRYVKQI [ISW2]
doa10∆
  protein stability index: 2.24 ± 0.044
pdr5∆
  protein stability index: 1.71 ± 0.049
san1∆
  protein stability index: 1.5 ± 0.094
ubr1∆
  protein stability index: 1.96 ± 0.048

## MAHFKEYQVIGRRLPTE [RPL20A]
doa10∆
  protein stability index: 2.21 ± 0.071
pdr5∆
  protein stability index: 2.07 ± 0.061
san1∆
  protein stability index: 1.4 ± 0.1
ubr1∆
  protein stability index: 2.4 ± 0.047

## KRLGPKRANNIRKFFGL [RPS6A]
doa10∆
  protein stability index: 3.52 ± 0.077
pdr5∆
  protein stability index: 3.56 ± 0.071
san1∆
  protein stability index: 3.25 ± 0.038
ubr1∆
  protein stability index: 3.46 ± 0.045

## QVKKPRKQRVKKKTKKE [SWI1]
doa10∆
  protein stability index: 3.13 ± 0.24
pdr5∆
  protein stability index: 3.37 ± 0.13
san1∆
  protein stability index: 3.5 ± 0.12
ubr1∆
  protein stability index: 3.38 ± 0.1

## ETASFIPTKESLTRDFE [YIL149C/MLP2]
doa10∆
  protein stability index: 2.83 ± 0.068
pdr5∆
  protein stability index: 3.09 ± 0.075
san1∆
  protein stability index: 2.41 ± 0.077
ubr1∆
  protein stability index: 2.72 ± 0.046

## TLPQPRLNKLNSNGIAM [SMD1]
doa10∆
  protein stability index: 2.3 ± 0.11
pdr5∆
  protein stability index: 2.27 ± 0.069
san1∆
  protein stability index: 1.72 ± 0.094
ubr1∆
  protein stability index: 2.15 ± 0.053

## SGRNIHLAVVCVDDNSK [SSN2]
doa10∆
  protein stability index: 2.14 ± 0.087
pdr5∆
  protein stability index: 1.61 ± 0.045
san1∆
  protein stability index: 1.48 ± 0.085
ubr1∆
  protein stability index: 2.96 ± 0.045

## QRTTTGARVFGALKGAS [RPL5]
doa10∆
  protein stability index: 2.88 ± 0.2
pdr5∆
  protein stability index: 2.52 ± 0.2
ubr1∆
  protein stability index: 3.05 ± 0.16

## IQLIKILNSHFDALRSL [YJL041W/NSP1]
doa10∆
  protein stability index: 2.54 ± 0.047
pdr5∆
  protein stability index: 2.4 ± 0.039
san1∆
  protein stability index: 2.95 ± 0.033
ubr1∆
  protein stability index: 2.58 ± 0.035

## ILEEGSSGMGAFGGSGG [RPN10]
doa10∆
  protein stability index: 3.36 ± 0.13
pdr5∆
  protein stability index: 3 ± 0.16
san1∆
  protein stability index: 3.04 ± 0.15
ubr1∆
  protein stability index: 3.28 ± 0.081

## SFTNYITRSFKEPRLVI [RPS0A]
doa10∆
  protein stability index: 2.74 ± 0.09
pdr5∆
  protein stability index: 2.79 ± 0.068
san1∆
  protein stability index: 2.55 ± 0.068
ubr1∆
  protein stability index: 2.83 ± 0.074

## LYDNFVSKFYDKINQLS [RPN9]
doa10∆
  protein stability index: 2.78 ± 0.098
pdr5∆
  protein stability index: 2.69 ± 0.077
san1∆
  protein stability index: 1.58 ± 0.15
ubr1∆
  protein stability index: 2.43 ± 0.077
